Legend:
[1] = molecular target: BsaWI E128A&R130A (Bacillus stearothermophilus W1718); experiment: SEC; gel filtration at 5 μM loading concentration; Superdex column, room temperature, 20 mM Tris-HCl pH 7.4, 0.5 M NaCl, 5% glycerol; oligomeric state from the apparent Mw
[2] = molecular target: BsaWI E128A&R130A (Bacillus stearothermophilus W1718)
[3] = molecular target: BsaWI E128A&R130A (Bacillus stearothermophilus W1718); experiment: SEC; gel filtration of the tetramerization interface mutants at up to 25 μM protein; Superdex column, room temperature, 20 mM Tris-HCl pH 7.4, 0.5 M NaCl, 5% glycerol
[4] = molecular target: BsaWI E128A&R130A (Bacillus stearothermophilus W1718); experiment: native gel or EMSA; 1 nM 33P-labeled 30-bp SP duplex with 0.02-1000 nM protein, 40 mM Tris-acetate pH 8.3, 0.1 mg/ml BSA, 10% glycerol, 5 mM CaCl2, room temperature; oligomeric state of the DNA-bound protein read from the mobility of the complex
[5] = molecular target: BsaWI R259A (Bacillus stearothermophilus W1718); experiment: SEC; gel filtration at 5 μM loading concentration; Superdex column, room temperature, 20 mM Tris-HCl pH 7.4, 0.5 M NaCl, 5% glycerol; oligomeric state from the apparent Mw
[6] = molecular target: BsaWI R259A (Bacillus stearothermophilus W1718)
[7] = molecular target: BsaWI R259A (Bacillus stearothermophilus W1718); experiment: SEC; gel filtration of the tetramerization interface mutants at up to 25 μM protein; Superdex column, room temperature, 20 mM Tris-HCl pH 7.4, 0.5 M NaCl, 5% glycerol
[8] = molecular target: BsaWI R259A (Bacillus stearothermophilus W1718); experiment: native gel or EMSA; 1 nM 33P-labeled 30-bp SP duplex with 0.02-1000 nM protein, 40 mM Tris-acetate pH 8.3, 0.1 mg/ml BSA, 10% glycerol, 5 mM CaCl2, room temperature; oligomeric state of the DNA-bound protein read from the mobility of the complex
[9] = molecular target: BsaWI R130A&R259A (Bacillus stearothermophilus W1718); experiment: SEC; gel filtration at 5 μM loading concentration; Superdex column, room temperature, 20 mM Tris-HCl pH 7.4, 0.5 M NaCl, 5% glycerol; oligomeric state from the apparent Mw
[10] = molecular target: BsaWI R130A&R259A (Bacillus stearothermophilus W1718)
[11] = molecular target: BsaWI R130A&R259A (Bacillus stearothermophilus W1718); experiment: SEC; gel filtration of the tetramerization interface mutants at up to 25 μM protein; Superdex column, room temperature, 20 mM Tris-HCl pH 7.4, 0.5 M NaCl, 5% glycerol
[12] = molecular target: BsaWI R130A&R259A (Bacillus stearothermophilus W1718); experiment: native gel or EMSA; 1 nM 33P-labeled 30-bp SP duplex with 0.02-1000 nM protein, 40 mM Tris-acetate pH 8.3, 0.1 mg/ml BSA, 10% glycerol, 5 mM CaCl2, room temperature; oligomeric state of the DNA-bound protein read from the mobility of the complex
[13] = molecular target: BsaWI E128A (Bacillus stearothermophilus W1718); experiment: SEC; gel filtration at 5 μM loading concentration; Superdex column, room temperature, 20 mM Tris-HCl pH 7.4, 0.5 M NaCl, 5% glycerol; oligomeric state from the apparent Mw
[14] = molecular target: BsaWI E128A (Bacillus stearothermophilus W1718)
[15] = molecular target: BsaWI E128A (Bacillus stearothermophilus W1718); experiment: SEC; gel filtration of the tetramerization interface mutants at up to 25 μM protein; Superdex column, room temperature, 20 mM Tris-HCl pH 7.4, 0.5 M NaCl, 5% glycerol
[16] = molecular target: BsaWI E128A (Bacillus stearothermophilus W1718); experiment: native gel or EMSA; 1 nM 33P-labeled 30-bp SP duplex with 0.02-1000 nM protein, 40 mM Tris-acetate pH 8.3, 0.1 mg/ml BSA, 10% glycerol, 5 mM CaCl2, room temperature; oligomeric state of the DNA-bound protein read from the mobility of the complex
[17] = molecular target: BsaWI D145A (Bacillus stearothermophilus W1718); experiment: SEC; gel filtration at 5 μM loading concentration; Superdex column, room temperature, 20 mM Tris-HCl pH 7.4, 0.5 M NaCl, 5% glycerol; oligomeric state from the apparent Mw
[18] = molecular target: BsaWI R259A&W262A (Bacillus stearothermophilus W1718); experiment: as above
[19] = molecular target: BsaWI R259A&W262A (Bacillus stearothermophilus W1718)
[20] = molecular target: BsaWI R259A&W262A (Bacillus stearothermophilus W1718); experiment: SEC; gel filtration of the tetramerization interface mutants at up to 25 μM protein; Superdex column, room temperature, 20 mM Tris-HCl pH 7.4, 0.5 M NaCl, 5% glycerol
[21] = molecular target: BsaWI R259A&W262A (Bacillus stearothermophilus W1718); experiment: native gel or EMSA; 1 nM 33P-labeled 30-bp SP duplex with 0.02-1000 nM protein, 40 mM Tris-acetate pH 8.3, 0.1 mg/ml BSA, 10% glycerol, 5 mM CaCl2, room temperature; oligomeric state of the DNA-bound protein read from the mobility of the complex
[22] = molecular target: BsaWI K85A (Bacillus stearothermophilus W1718); experiment: SEC; gel filtration at 5 μM loading concentration; Superdex column, room temperature, 20 mM Tris-HCl pH 7.4, 0.5 M NaCl, 5% glycerol; oligomeric state from the apparent Mw
[23] = molecular target: BsaWI D175A (Bacillus stearothermophilus W1718); experiment: as above
[24] = molecular target: BsaWI E128A&W262A (Bacillus stearothermophilus W1718); experiment: as above
[25] = molecular target: BsaWI E128A&W262A (Bacillus stearothermophilus W1718)
[26] = molecular target: BsaWI E128A&W262A (Bacillus stearothermophilus W1718); experiment: SEC; gel filtration of the tetramerization interface mutants at up to 25 μM protein; Superdex column, room temperature, 20 mM Tris-HCl pH 7.4, 0.5 M NaCl, 5% glycerol
[27] = molecular target: BsaWI E128A&W262A (Bacillus stearothermophilus W1718); experiment: native gel or EMSA; 1 nM 33P-labeled 30-bp SP duplex with 0.02-1000 nM protein, 40 mM Tris-acetate pH 8.3, 0.1 mg/ml BSA, 10% glycerol, 5 mM CaCl2, room temperature; oligomeric state of the DNA-bound protein read from the mobility of the complex
[28] = molecular target: restriction endonuclease BsaWI, wild type (Bacillus stearothermophilus W1718); experiment: SEC; gel filtration at 5 μM loading concentration; Superdex column, room temperature, 20 mM Tris-HCl pH 7.4, 0.5 M NaCl, 5% glycerol; oligomeric state from the apparent Mw
[29] = molecular target: restriction endonuclease BsaWI, wild type (Bacillus stearothermophilus W1718); experiment: SEC; gel filtration at 2.5-5 μM loading concentration (concentration series); Superdex column, room temperature, 20 mM Tris-HCl pH 7.4, 0.5 M NaCl, 5% glycerol
[30] = molecular target: restriction endonuclease BsaWI, wild type (Bacillus stearothermophilus W1718); experiment: SEC; gel filtration of the BsaWI-DNA complex with the 30 bp SP oligoduplex; Superdex column, room temperature, 20 mM Tris-HCl pH 7.4, 0.5 M NaCl, 5% glycerol
[31] = molecular target: restriction endonuclease BsaWI, wild type (Bacillus stearothermophilus W1718); experiment: SEC; gel filtration at low loading concentrations (0.25-1 μM); Superdex column, room temperature, 20 mM Tris-HCl pH 7.4, 0.5 M NaCl, 5% glycerol
[32] = molecular target: restriction endonuclease BsaWI, wild type (Bacillus stearothermophilus W1718)
[33] = molecular target: restriction endonuclease BsaWI, wild type (Bacillus stearothermophilus W1718); experiment: native gel or EMSA; 1 nM 33P-labeled 30-bp SP duplex with 0.02-1000 nM protein, 40 mM Tris-acetate pH 8.3, 0.1 mg/ml BSA, 10% glycerol, 5 mM CaCl2, room temperature; oligomeric state of the DNA-bound protein read from the mobility of the complex
[34] = molecular target: BsaWI R130A (Bacillus stearothermophilus W1718); experiment: SEC; gel filtration at 5 μM loading concentration; Superdex column, room temperature, 20 mM Tris-HCl pH 7.4, 0.5 M NaCl, 5% glycerol; oligomeric state from the apparent Mw
[35] = molecular target: BsaWI R130A (Bacillus stearothermophilus W1718)
[36] = molecular target: BsaWI R130A (Bacillus stearothermophilus W1718); experiment: SEC; gel filtration of the tetramerization interface mutants at up to 25 μM protein; Superdex column, room temperature, 20 mM Tris-HCl pH 7.4, 0.5 M NaCl, 5% glycerol
[37] = molecular target: BsaWI R130A (Bacillus stearothermophilus W1718); experiment: native gel or EMSA; 1 nM 33P-labeled 30-bp SP duplex with 0.02-1000 nM protein, 40 mM Tris-acetate pH 8.3, 0.1 mg/ml BSA, 10% glycerol, 5 mM CaCl2, room temperature; oligomeric state of the DNA-bound protein read from the mobility of the complex
BsaWI wt [38] = molecular target: T1, BsaWI wt (UniProt Q6UQ65 1-272); experiment: EMSA; 5 mM Ca2+; lower mobility complex; EMSA: 40 mM Tris-acetate pH 8.3, 0.1 mg/ml BSA, 10% glycerol, 5 mM CaCl2 or 0.1 mM EDTA, 1 nM DNA, room temperature, 15 min; conditions: protein: recombinant; chain copies: 4; label: 33P; blunt
T1 sequence: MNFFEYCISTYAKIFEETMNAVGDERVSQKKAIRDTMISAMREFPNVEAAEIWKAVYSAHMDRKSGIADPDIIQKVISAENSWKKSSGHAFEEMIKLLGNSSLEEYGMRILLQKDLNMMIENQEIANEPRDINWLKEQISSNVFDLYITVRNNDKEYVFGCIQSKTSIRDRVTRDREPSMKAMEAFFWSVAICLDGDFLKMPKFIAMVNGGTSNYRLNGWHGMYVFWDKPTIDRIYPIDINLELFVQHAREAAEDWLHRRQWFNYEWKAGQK

BsaWI wt [39] = molecular target: T1, BsaWI wt; experiment: crystal structure; 0.02 M CaCl2 in crystallization buffer; no Ca2+ seen; pre-specific complex; 2.40 A; EMSA: 40 mM Tris-acetate pH 8.3, 0.1 mg/ml BSA, 10% glycerol, 5 mM CaCl2 or 0.1 mM EDTA, 1 nM DNA, room temperature, 15 min; conditions: protein: recombinant; chain copies: 4; blunt; self-complementary, 2 copies of strand

Which results are given for BsaWI E128A&R130A (enzyme)?
stoichiometry N [1]: 2; ratio of DNA cleavage rate constants kobs for the 2-site and 1-site substrates at optimal enzyme concentration [2]: 1.8; stoichiometry N [3]: 2; stoichiometry N [4]: 2

Which stoichiometry N [5] does the source give for BsaWI R259A (enzyme) here?
Its stoichiometry N is 2.

And the ratio of DNA cleavage rate constants kobs for the 2-site and 1-site substrates at optimal enzyme concentration [6]?
Its ratio of DNA cleavage rate constants kobs for the 2-site and 1-site substrates at optimal enzyme concentration is 14.4.

What about the stoichiometry N [7] of the same molecule?
Its stoichiometry N is 2.

And the stoichiometry N [8]?
The stoichiometry N was 2.

With BsaWI R130A&R259A (enzyme) as the molecule, how does the stoichiometry N [9] read?
Its stoichiometry N is 2.

What about the ratio of DNA cleavage rate constants kobs for the 2-site and 1-site substrates at optimal enzyme concentration [10] of the same molecule?
The ratio of DNA cleavage rate constants kobs for the 2-site and 1-site substrates at optimal enzyme concentration was 1.1.

And the stoichiometry N [11]?
The stoichiometry N was 2.

And the stoichiometry N [12]?
Its stoichiometry N is 2.

With BsaWI E128A (enzyme) as the molecule, how does the stoichiometry N [13] read?
Its stoichiometry N is 2.

What about the ratio of DNA cleavage rate constants kobs for the 2-site and 1-site substrates at optimal enzyme concentration [14] of the same molecule?
The ratio of DNA cleavage rate constants kobs for the 2-site and 1-site substrates at optimal enzyme concentration was 17.9.

And the stoichiometry N [15]?
Its stoichiometry N is 2.

And the stoichiometry N [16]?
The stoichiometry N was 2.

For BsaWI D145A (enzyme), which stoichiometry N [17] is on record?
The stoichiometry N was 4.

Which stoichiometry N [18] does the source give for BsaWI R259A&W262A (enzyme) here?
The stoichiometry N was 2.

What about the ratio of DNA cleavage rate constants kobs for the 2-site and 1-site substrates at optimal enzyme concentration [19] of the same molecule?
Its ratio of DNA cleavage rate constants kobs for the 2-site and 1-site substrates at optimal enzyme concentration is 2.2.

And the stoichiometry N [20]?
The stoichiometry N was 2.

And the stoichiometry N [21]?
Its stoichiometry N is 2.

Which stoichiometry N [22] does the source give for BsaWI K85A (enzyme) here?
Its stoichiometry N is 4.

With BsaWI D175A (enzyme) as the molecule, how does the stoichiometry N [23] read?
Its stoichiometry N is 4.

Which stoichiometry N [24] does the source give for BsaWI E128A&W262A (enzyme) here?
Its stoichiometry N is 2.

What about the ratio of DNA cleavage rate constants kobs for the 2-site and 1-site substrates at optimal enzyme concentration [25] of the same molecule?
The ratio of DNA cleavage rate constants kobs for the 2-site and 1-site substrates at optimal enzyme concentration was 2.2.

And the stoichiometry N [26]?
The stoichiometry N was 2.

And the stoichiometry N [27]?
Its stoichiometry N is 2.

With “restriction endonuclease BsaWI, wild type (enzyme)” as the molecule, how does the stoichiometry N [28] read?
Its stoichiometry N is 4.

And the stoichiometry N [29]?
Its stoichiometry N is 4.

And the stoichiometry N [30]?
Its stoichiometry N is 4.

What about the stoichiometry N [31] of the same molecule?
The stoichiometry N was 2.

And the ratio of DNA cleavage rate constants kobs for the 2-site and 1-site substrates at optimal enzyme concentration [32]?
The ratio of DNA cleavage rate constants kobs for the 2-site and 1-site substrates at optimal enzyme concentration was 20.6.

And the stoichiometry N [33]?
The stoichiometry N was 4.

With BsaWI R130A (enzyme) as the molecule, how does the stoichiometry N [34] read?
The stoichiometry N was 2.

What about the ratio of DNA cleavage rate constants kobs for the 2-site and 1-site substrates at optimal enzyme concentration [35] of the same molecule?
The ratio of DNA cleavage rate constants kobs for the 2-site and 1-site substrates at optimal enzyme concentration was 2.4.

What about the stoichiometry N [36] of the same molecule?
The stoichiometry N was 2.

And the stoichiometry N [37]?
The stoichiometry N was 2.

B1: NSP (dsDNA)
DNA 1: AATGGGCTCGCACGCCTGGTATTATCGATTGTA
DNA 2: TACAATCGATAATACCAGGCGTGCGAGCCCATT
For B1, which Kd (BsaWI wt [38]) is on record?
Its Kd is ~10 nM.

B2: SP14 (dsDNA)
DNA 1: CTCGACCGGTCGAG
DNA 2: CTCGACCGGTCGAG
Does B2 bind (BsaWI wt [39])?
Result: binds
